No end group written: not given here.
Assays:
[1] = tested on: pepsin, trypsin, α-chymotrypsin; assay: Simulated gastrointestinal digestion in vitro; assay type: in vitro ADME, porcine pepsin and trypsin, bovine α-chymotrypsin
Excerpt: Digestive enzymes (porcine pepsin and trypsin, bovine α-chymotrypsin), model protein substrate bovine α-casein, and secondary anti-rabbit IgG polyclonal goat antibodies conjugated to HRP and 3,3′,5,5′-tetramethylbenzidine (TMB) substrates were purchased from Sigma-Aldrich (St. Louis, MO, USA). Synthetic lysophospholipids (lyso-palmitoyl phosphatidylcholine (LPPC), lyso-palmitoyl phosphatidylglycerol (LPPG)) were purchased from Avanti Polar Lipids (Alabaster, AL, USA).
Sensitivity of Lc-def to digestive enzymes was examined by simulation of its gastrointestinal digestion in vitro. Gastric digestion was performed for 2 h, using 50 ng of pepsin per 1 μg of preheated at 100 °C for 30 min and intact Lc-def in 0.1 M HCl, pH 2.0. For duodenal digestion, the pH of the mixture resulting from gastric digestion was adjusted to 8.0 by addition of ammonium bicarbonate. The obtained mixture was incubated for 24 h at 37 °C with 2.5 ng of trypsin and 10 ng of α-chymotrypsin per 1 μg of the defensin. The degree of proteolysis was monitored by SDS-PAGE and RP-HPLC. Gel analysis was performed using Gel Doc XR^+ imaging system (Bio-Rad, Hercules, CA, USA) and Image Lab Software v.6.1.0 (Bio-Rad, Hercules, CA, USA). Some independent experiments were performed in each case. The experiment with α-casein was carried out for comparison.

[2] = CD spectroscopy, secondary structure at different pH and temperature; assay type: physicochemical
Method: Circular dichroism spectra were recorded at different temperatures using a J-810 spectropolarimeter (Jasco, Hachioji, Tokyo, Japan) in a 0.1 cm path length quartz cell (Hellma GmbH and Co. KG, Mullheim, Germany) in the 190–250 nm range 0.2 using solutions of Lc-def in 10 mM phosphate buffer, pH 7.4, or 150 mM sodium chloride, pH 2.5, simulated gastric fluid, at a concentration of 30 µM. Lysolipids were added at final concentration of 1 mM.

[3] = far-UV CD, 30 µM, 10 mM phosphate buffer pH 7.4
[4] = far-UV CD, 30 µM, 150 mM sodium chloride pH 2.5, simulated gastric fluid
[5] = pH 7.4, 20 °C end (after heating and cooling)

## Lc-def: defensin from lentil Lens culinaris seeds (UniProt:B3F051), recombinant, overexpressed in Escherichia coli (KTCENLSDSFKGPCIPDGNCNKHCKEKEHLLSGRCRDDFRCWCTRNC; disulfide (positions not given here); ends not checked; also: disulfide bonds present, pairing not given here; UniProt B3F051 28-74, looked up)
[1]
  degradation after gastrointestinal digestion: approximately 30%
[2]; +LPPC 1 mM, pH 7.4, 20 °C
  Random, %: 31%
  α-Helix, %: 16.4%
  β-Sheet, %: 30.3%
  β-Turn, %: 22.3%
[2]; +LPPC 1 mM, pH 7.4, 20 °C end
  Random, %: 32.8%
  α-Helix, %: 5.8%
  β-Sheet, %: 39.9%
  β-Turn, %: 21.5%
[2]; +LPPC 1 mM, pH 7.4, 98 °C
  Random, %: 33.7%
  α-Helix, %: 8.1%
  β-Sheet, %: 35.7%
  β-Turn, %: 22.5%
[2]; +LPPG 1 mM, pH 7.4, 20 °C
  Random, %: 33%
  α-Helix, %: 23.6%
  β-Sheet, %: 21%
  β-Turn, %: 22.4%
[2]; +LPPG 1 mM, pH 7.4, 20 °C end
  Random, %: 32.9%
  α-Helix, %: 21.7%
  β-Sheet, %: 23.1%
  β-Turn, %: 22.2%
[2]; +LPPG 1 mM, pH 7.4, 98 °C
  Random, %: 35%
  α-Helix, %: 18.5%
  β-Sheet, %: 24.1%
  β-Turn, %: 22.4%
[2]; [3]
  Random, %: 33.9%
  α-Helix, %: 15.5%
  β-Sheet, %: 28.5%
  β-Turn, %: 22.2%
[2]; [4]
  Random, %: 35.8%
  α-Helix, %: 13.9%
  β-Sheet, %: 25.4%
  β-Turn, %: 24.8%
[2]; pH 7.4, 20 °C (before heating)
  Random, %: 34%
  α-Helix, %: 15.9%
  β-Sheet, %: 27.7%
  β-Turn, %: 22.3%
[2]; [5]
  Random, %: 35.9%
  α-Helix, %: 9%
  β-Sheet, %: 32.1%
  β-Turn, %: 22.9%
[2]; pH 7.4, 98 °C
  Random, %: 35.3%
  α-Helix, %: 13.3%
  β-Sheet, %: 29.6%
  β-Turn, %: 21.8%
